Changes are numbered by the printed parent chain. Names may count otherwise.
B1: negative control mAb 13R4 (recognizing E. coli beta-galactosidase) (antibody, V domains shown)
VH: EVQLVESGGSLVKPGGSLRLSCAASGFTFSNYSMNWVRQAPGKGLEWISSISGSSRYIYYADFVKGRFTISRDNATNSLYLQMNSLRAEDTAVYYCVRSSITIFGGGMDVWGRGTLVTVSS
VL: QSVLTQPASVSGSPGQSITISCAGTSSDVGGYNYVSWYQQHPGKAPKLMIYEDSKRPSGVSNRFSGSKSGNTASLTISGLQAEDEADYYCSSYTTRSTRVFGGGTKLAVLG
B2: S8-ATX1B6 (antibody, V domains shown)
VH: QVQLVESGGGVVLPGRSLRLSCAASGFTFNIYGMHWVRQAPGKGLEWVAVISYDGNNKEYADSVKGRFTISRDSSRNTLYLQMNSLRAEDTAVYYCAKRGYGSSSLEFWGQGTLVTVSS
VL: DIQMTQSPSSLSASVGDRVTITCRSSQDIRNDLGWYQQKPGKAPKRLIYASSNLQSGVPSRFSGSGSGTEFTLTISSLQPDDFATYYCLQHNTYPYTFGQGTKLEIK
notes: Only variable domains are tied to the name in the text; also made as IgG4 (S228P); also called Sig8-1B6; 11B6
B3: S8-ATX1B4 (antibody, V domains shown)
VH: B2 VH with L13Q, N30S, E59D, A61T, S74N, R76K, R87T
VL: B2 VL with S25A, S51T, N53S, G66R, T69A, I75V, D81E
notes: Only variable domains are tied to the name in the text; Produced as recombinant fully human IgG1 and IgG4 (S228P) with a kappa light chain; also called Sig8-1B4; 11B4
B4: S8-ATX1H4 (antibody, V domains shown)
VH: QVQLVQSGTEVKYPGASVKVSCKASGYTFIDYGISWVRQAPGQGLEWMGWISAYNGNTDYAQKLQGRVTMTTDTSTSTAYMDLRSLRSDDTAVYYCAREGEGYCTYGVCPSFDYWGQGTLVTVSS
VL: EIVLTQSPGTLSLSPGERATLSCRASQSVSSSYLAWYQQKPGQAPRLLIYGASTRGTGIPDRFSGSGSGTDFTLTISRLEPEDFALYYCQQYGSSPYTFGQGTKLEIK
notes: Only variable domains are tied to the name in the text; Produced as recombinant human IgG1 and IgG4 (S228P), kappa light chain; also called Sig8-1H4
B5: S8-ATX1E1 (antibody, V domains shown)
VH: EVQLVESGGGLVQPGRSLRLSCAASGFMFDDYVMHWVRQAPGKGLEWVSGINWNSDNIGYADSVKGRFTISRDNAKNSLFLQMNSLRVEDTALYYCAKDIDAAAFDYWGQGTLVTVSS
VL: DIVMTQSPLSLPVTPGEPASISCRSSQSLLHSNGYSYLAWYLQKPGQSPQLLIYLVSNRASGVPDRFTGSGSGTDFTLKISRVEAEDVGVYYCMQALQTPWTFGQGTKVEIK
notes: Only variable domains are tied to the name in the text; Produced as recombinant human IgG1 and IgG4 (S228P), kappa light chain; also called Sig8-1E1
B6: S8-ATX2A3 (antibody, V domains shown)
VH: QVQLQESGPGLVKPSETLSLTCTVSGASISGYYWNWIRQPPGKGLEWIGYIHYSGTTNYNPSLKSRITISLDTSENQFSLRLSSVTAADTAVYYCARDWYTGYDWEGFDYWGQGTLVTVSS
VL: QSVLTQPPSVSGAPGQRVSFSCTGTSSNIGTGFDVHWYRQLPGTAPKVLIYNNNNRPSGVPDRFSASKSGTSASLAITGLQAEDEADYYCQSYDSSLSGSVFGGGTRLTVL
notes: Only variable domains are tied to the name in the text; IgG1 format in ADCC and eosinophil assays; also called Sig8-2A3
B7: S8-ATX2F10 (antibody, V domains shown)
VH: EVQLVESGGDLVKSGGSLRLSCAASGFTFSDAWMSWVRQAPGKGLEWVGRIQSKTDGGTTDYVAPVKGRFTISRDDSKDTLYLHMNSLTTEDTAVYYCTTDLYYYGSGSYFLGQGTLVTVSS
VL: DIQMTQSPSSLSASVGDRVTITCRASQNIITYLNWYQQKPGKAPKLLIYAASSLQSGVPSRFSGSGSGTDFTLTISSLQPEDFAIYHCQQSYNVPTTFGQGTKLEIK
notes: Only variable domains are tied to the name in the text; also IgG4 (S228P); also called Sig8-2F10; S8-2F10
B8: S8-ATX1E4 (antibody, V domains shown)
VH: QVQLVQSGSELKKPGASVKVSCKTSGYTFTSYAMNWVRQAPGQGLEWMGWINTNTGNPTYAQGFRGRFVFSLDTSVSTAYLQISSLKAEDTAVYYCARDKYSSSWYWFDSWGQGTLVTVSS
VL: DIQMTQSPSSLSASVGDRVTITCRPSQNISSYLNWYQQKPGKAPKLLIYAASSLRSGVPSRFSGSGSGTDFTLTVSSLQPEDFANYYCQQSYSTPYTFGRGTKLEIK
notes: Only variable domains are tied to the name in the text; Produced as recombinant human IgG1 and IgG4 (S228P), kappa light chain; also called Sig8-1E4

Tests used:
[1] = target: T1, full-length human Siglec-8 (Siglec-8^FL) (human, UniProt Q9NYZ4 17-499); assay: flow cytometry on Siglec-8-expressing cells, in some experiments of FIGS. 9A-9D
T1 construct: whole, on cells; Expressed by lentiviral transduction on K562, RS4;11, TF-1, EOL-1 and other cells; the same id is used for Siglec-8 endogenously expressed on LUVA cells, HMC1.2 cells and primary human eosinophils; also called Siglec-8^Hu; SAF2
Procedure: (§1) FIGS. 9A-9D. Human Siglec-8 mAbs were tested flow cytometrically against (FIG. 9A) parental human lymphoid RS4; 11 cells (endogenously lacking Siglec-8 expression) and a subline engineered to express Siglec-8^FL, (FIG. 9B) parental human mast cell line, HMC1.2, enriched for expression of endogenous Siglec-8; and (FIG. 9C) parental human myeloid K562 (endogenously lacking Siglec-8 expression) and sublines of K562 cells engineered to express either Siglec-8^FL, Siglec-8^ΔE2, or Siglec-8^V-set; and (FIG. 9D) primary human eosinophils, as indicated. A negative control without primary mAbs was included, as was, in some experiments, a negative control with a non-binding primary mAb (13R4).

[2] = target: T1, full-length human Siglec-8 (Siglec-8^FL); assay: flow cytometry on K562 cells expressing Siglec-8 FL (FIG. 9C)
Procedure: as §1

T1 sequence (Q9NYZ4 17-499): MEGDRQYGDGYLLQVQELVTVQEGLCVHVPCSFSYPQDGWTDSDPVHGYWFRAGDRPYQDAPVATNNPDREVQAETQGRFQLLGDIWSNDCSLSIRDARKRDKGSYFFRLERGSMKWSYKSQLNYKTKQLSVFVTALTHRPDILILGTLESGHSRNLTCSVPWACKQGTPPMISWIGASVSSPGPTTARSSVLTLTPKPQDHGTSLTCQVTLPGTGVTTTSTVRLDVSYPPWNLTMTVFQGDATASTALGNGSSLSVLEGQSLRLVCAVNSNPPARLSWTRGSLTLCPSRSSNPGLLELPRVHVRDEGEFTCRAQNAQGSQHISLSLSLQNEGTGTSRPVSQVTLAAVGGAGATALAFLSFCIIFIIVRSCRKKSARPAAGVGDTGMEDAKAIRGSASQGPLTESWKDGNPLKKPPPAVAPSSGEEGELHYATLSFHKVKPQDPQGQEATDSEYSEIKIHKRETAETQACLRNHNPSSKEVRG

Row | Binder | binding result [1] | binding result [2]
1 | B1 | no binding | –
2 | B2 | – | binds
3 | B3 | – | binds
4 | B4 | – | binds
5 | B5 | – | binds
6 | B6 | – | binds
7 | B7 | – | binds
8 | B8 | – | binds
